The supplement of paper PMC10126150
± gives the standard deviation of the averaged measurements.

Each sequence was assayed on ATP (assay: switch fluorescence ratio, 500 uM ATP over buffer (Cy3 cluster intensity, sum of 5 cycles each) (fold (ratio)); higher = stronger signal-on switching upon ATP binding; sequences stand for … in TCGTCGGCAGCGTCAGATGTGTATAAGAGACAGTTTTTTTTTTTTTTTTTTTTTTTTT…TC). Details: aptamer strand: ATP DNA aptamer (quencher-CACCTGGGGGAGTATTGCGGAGGAAGG + anchor), 100 nM annealed; ATP concentration: 500 uM.
In short: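 The fluorescence ratio divides summed target-cycle Cy3 intensity by summed buffer-cycle Cy3 intensity for each cluster and is averaged per switch-domain sequence. Cy3-labelled switching-strand clusters on a modified Illumina MiSeq flow-cell were annealed to 100 nM quencher-labelled ATP aptamer, then imaged in selection buffer and again after 15 min with 500 uM ATP at 22 °C. Five such cycles were run, with NaOH stripping and re-annealing between them, and clusters outside 100-1000 RFU were excluded.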
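Further: ATP exposure 15 min at 22 °C before imaging.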

Point of comparison: GTGATTTTTT, switch fluorescence ratio 1.01 ± 0.019. Against it:
- CATATAAGTA — lower, 0.9809 ± 0.0025
- GCGAGGGGTT — within error, 0.969 ± 0.035
- GGGACCTTTT — within error, 1 ± 0.032
- GTGTCAGTTG — lower, 0.93646 ± 0.00087
- TATTTGGGTA — within error, 0.987 ± 0.026
- GGGCGTAAGG — the same, 1.01 ± 0.047
- ATCGGCTCTC — within error, 1.03 ± 0.025
- TGGGTATGTG — within error, 0.972 ± 0.038
- TGATATGTGG — the same, 1.01 ± 0.038
- ATGGGTATTG — the same, 1.009 ± 0.0039
- TCTTGGATGG — within error, 0.986 ± 0.04
- TAGTGGGTTT — the same, 1.01 ± 0.021
- AATTTAGACG — within error, 1.016 ± 0.0083
- CGCCGCACTT — higher, 3.93 ± 1.1
- TAGGTCAGAA — within error, 0.989 ± 0.025
- GATCATGCCT — higher, 1.048 ± 0.008
- CCGTGTAAGC — higher, 1.343 ± 0.0024
- CTACGGGGCT — the same, 1.01 ± 0.02
- TTGATTAGGC — higher, 1.06 ± 0.029
- AGTATTAATG — within error, 1 ± 0.04
- GAGGTGGCAG — the same, 1.0097 ± 0.00096
- TCCTCAGGAT — within error, 1.02 ± 0.018
- CTTCTGGGGC — within error, 1.04 ± 0.055
- TCGGGTTCCG — lower, 0.963 ± 0.019
- TAGTTGCGGC — the same, 1.01 ± 0.041
- AGTTGGGTTG — within error, 1 ± 0.023
- ATGTAGGAAC — within error, 0.999 ± 0.012
- TCTATTTTGT — within error, 0.988 ± 0.017
- ATTGAAGGCA — lower, 0.966 ± 0.011
- AGGAACGTAC — higher, 1.61 ± 0.057
- CAGGGGGGG — within error, 1 ± 0.011
- TTCTAGCGAA — within error, 1.17 ± 0.22
- CCCGGTTTAG — within error, 1.03 ± 0.0015
- AAAGTAGGTA — lower, 0.976 ± 0.011
- TACTTGTTAT — within error, 0.989 ± 0.034
- GACGGCGTTC — the same, 1.008 ± 0.0058
- AGCTTCTAAC — within error, 1.025 ± 0.0036
- AATGTGTTG — within error, 0.984 ± 0.041
- TTTGAAGTGG — within error, 1.03 ± 0.03
- GGGGGAAGGA — within error, 0.995 ± 0.036
- ATTGTAGTCA — within error, 0.973 ± 0.019
- GCAAGTAGTT — within error, 1.03 ± 0.053
- ACACGATTGG — within error, 0.991 ± 0.014
- GTGGGGGGAG — within error, 1 ± 0.026
- TTGAAACCGG — within error, 0.998 ± 0.017
- CGGGCAATCA — higher, 1.58 ± 0.11
- GAAGGGTAAT — within error, 0.9955 ± 0.0036
- GAGGCGGAGG — within error, 1 ± 0.028
- TTACTGATCG — within error, 1.025 ± 0.0073
- AGAGTCTGGT — within error, 0.965 ± 0.03
- TGAAGACATT — within error, 1.02 ± 0.04
- TAAAGGACTT — within error, 1.05 ± 0.087
- AGAGACCCCG — within error, 0.971 ± 0.039
- TACTTTTGAA — within error, 0.977 ± 0.022
- TTAGATTCGG — within error, 0.997 ± 0.039
- CTGTAGACGG — higher, 1.05 ± 0.014
- ATGAGGTAGG — within error, 1.03 ± 0.05
- AGATATCAAC — within error, 1.04 ± 0.021
- TTTGATGGTG — within error, 1.04 ± 0.012
- TGATTCATGA — lower, 0.925 ± 0.033
- ATGAGAGAAT — the same, 1.0144 ± 0.0004
- AATTTGCAGT — within error, 1.004 ± 0.0043
- CGTATAGGTC — within error, 0.999 ± 0.033
- CTGGTGGCCG — within error, 1 ± 0.028
- ACTCTAGGTG — higher, 3.47 ± 0.091
- GCTATCTGGA — within error, 0.998 ± 0.031
- CCAAGGCTTA — within error, 1.06 ± 0.063
- GTTTCCAATC — within error, 1.02 ± 0.06
- GACGGGCGGA — within error, 1.019 ± 0.0024
- GGTCATGGGA — within error, 0.99 ± 0.017
- TTGATCTGGT — the same, 1.01 ± 0.027
- TGTTTCTTTT — the same, 1.01 ± 0.024
- GATTTATTGG — within error, 0.983 ± 0.032
- CGCTTAAGTT — within error, 1.004 ± 0.0013
- TTGATCCGAC — higher, 1.35 ± 0.25
- ATTTCGATAT — within error, 0.979 ± 0.038
- TTTGATTGCA — within error, 1.03 ± 0.068
- GTTTGTTATC — lower, 0.98 ± 0.0057
- CGCTTGGTCG — within error, 1.03 ± 0.016
- GTGTGGAGGG — within error, 1.016 ± 0.0016
- TTAGGTGCGT — higher, 1.08 ± 0.028
- GAGGTTGTAC — within error, 1.02 ± 0.012
- TAAATTTTAA — lower, 0.9818 ± 0.0082
- CTCCGAATTT — higher, 2.17 ± 0.35
- GTTTCGGGGA — within error, 1 ± 0.038
- TATTGATTTA — within error, 1.02 ± 0.042
- TAAAACATTG — within error, 1.03 ± 0.015
- AGTCGGGGTA — within error, 1.02 ± 0.027
- GGGATATATT — within error, 0.9914 ± 0.0074
- CGATCCGGGA — within error, 0.9982 ± 0.006
- GGGTCATGTT — within error, 1 ± 0.015
- AGAAGGAGGT — within error, 0.9874 ± 0.0089
- TGGGCTAAAT — within error, 0.987 ± 0.027
- ATAGTTATGG — within error, 0.992 ± 0.011
- TAGGCGTACG — higher, 1.08 ± 0.006
- ATCTTGGTCC — within error, 0.9948 ± 0.003
- TTGGAGGAAT — within error, 1.02 ± 0.014
- CCAAGCGCCC — higher, 1.63 ± 0.23
- AATCTGCTTG — within error, 1.05 ± 0.024
